In the data set the test system is MS2 coat protein. Briefly: apparent KD of MS2 coat protein; designed switch direction (-1 OFF switch, 1 ON switch): 1; higher = weaker reporter binding. The procedure, abridged: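 Stalled E. coli RNA polymerase transcribed designed RNA switches on Illumina chips, which were then titrated with SNAP-549-labelled MS2 coat protein, doubling from 0.7 or 1.5 nM to 3 µM. Steps lasted from 0.8–1.5 h at the lowest concentration to 10–20 min at the highest. The apparent KD is each design's median over clusters of curve-fitted normalised fluorescence.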

Setting [1] is: Eterna round: R95, input ligand: FMN 200 uM.
[2] abbreviates: Eterna round: R95, input ligand: microRNA oligo, concentration not stated.
The mark [3] stands for this setting: Eterna round: R95, input ligand: none.
Setting [4] is: input ligand: microRNA oligo, concentration not stated.

For the sequence “AUCCUACAUGAGGAUCACCCAUGUGACGCCUCAAUAGGAUAUCGGGCCCACAGUCGGGAACGAGAAGGAUUGAAGC [Beatonce] (puzzle: Same State 1)”, the “apparent KD of MS2 coat protein” value is 70 nM under setting [1], 170 nM under setting [2] and 669 nM under setting [3].
As to “AUUAAACAUGAGGAUCACCCAUGUCAACAAAGUCGAGGAUAUGGGCAUAUUAUCUUAUUUCCAGAAGGCGAAUAAU [salish99_ss1_r3_088] (puzzle: Same State 1)”, the “apparent KD of MS2 coat protein” value under setting [2] is 131 nM.
Regarding “UUGCUUCUCGUAGGAUAUGUAGGAUAUGCCUACAUGAGGAUCACCCAUGUUCGCAUGGCAGAAGGACAGAAGGACGAUCACCCU [pwkr ssNG2 2FMN + 1F5.8] (Eterna round: R96, puzzle: Same State NG 2)”, the “apparent KD of MS2 coat protein” value reads like this: (input ligand: FMN 200 uM) 43.5 nM; under setting [4], 88.1 nM; (input ligand: none) 472 nM.
“UUUGGGUGGCUGGAGGAUAUUCGAGUGGUUACAUGAGGAUCACCCAUGUGUCGCGCGGUACACGAGGAGAAGGCUGGCGGCCGUU (puzzle: Same State 2)”: the “apparent KD of MS2 coat protein” value under setting [2] was found to be 37.7 nM.
In the case of “UACAAUCUAUCUGAGGAUAUCAUGAAUUAUACAUGAGGAUCACCCAUGUGCAGGAAAACUGCAUAUGAGAAGGCAGAUAGAUUGU [salish99_ss2_r3_062] (puzzle: Same State 2)”, the “apparent KD of MS2 coat protein” value was found to be 63.4 nM under setting [1], 43.6 nM under setting [2] and 183 nM under setting [3].
“GCCAUCGCAUGAGGAUAUGGCACCGUUUCGGUGCCAGAAGGCAUGUCGUAAGACAUGAGGAUCACCCAUGUAGUUAAGAUGGCA [JL Fiskers NG1ss - 33 mod 8] (Eterna round: R96, puzzle: Same State NG 1)”: the “apparent KD of MS2 coat protein” value is, setting by setting: (input ligand: FMN 200 uM) 219 nM; under setting [4], 101 nM; (input ligand: none) 407 nM.
The matching figures for “GCCAACUAAUGAGGAUAUGGCACCUUAUUGGUGCCAGAAGGCAUGUCAAAAGACAUGAGGAUCACCCAUGUAUUAUAGUUGGCA [Mat - Same State NG 1 - JL mod - D73] (Eterna round: R96, puzzle: Same State NG 1)”: 25.5 nM, 62.5 nM and 304 nM.
As to “UAGACAAGCUUUAUGUUCUUCCUUUUCCUACAUGAGGAUCACCCAUGUAGUCUGUCGAUUGAGAGAGUAGUUGAGAA [JR_SHM208A_Sub024] (puzzle: Sensor for hsa-mir-208a)”, the “apparent KD of MS2 coat protein” value was found to be 17.8 nM under setting [1], 16.5 nM under setting [2] and 18.2 nM under setting [3].
For “UUAUUCUAUAUAGGAUAUUGAUGUAAUUUAUUUCAAGAAGGAUAUACAUGAGGAUCACCCAUGUUGGAUAGGGUUAGUUUGUUU [JR_SSNG1_Sub080] (Eterna round: R96, puzzle: Same State NG 1)”, the “apparent KD of MS2 coat protein” value under setting [4] stood at 58.2 nM.
Regarding “UUGAAGAAUUAAGGAUAUUGAUUACAUAUGUUUAACAUGAGGAUCACCCAUGUGGGUUGCGGUAUCGAGAAGGUAAAUUAAUAG [Mat - same State NG 2 - JL mod - D81] (Eterna round: R96, puzzle: Same State NG 2)”, the “apparent KD of MS2 coat protein” value (input ligand: FMN 200 uM) came out at 168 nM, the “apparent KD of MS2 coat protein” value under setting [4] came to 181 nM and the “apparent KD of MS2 coat protein” value (input ligand: none) stood at 174 nM.
The matching figures for “GUAGCAUACCGAGGAUAUUCAAACCGGAAACGGACAUGAGGAUCACCCAUGUGGCGAAAGCCUUGGGAGAAGGCGGAAUGCUAC [Xeonanis - 20 Mod76] (Eterna round: R96, puzzle: Same State NG 2)”: 6.08 nM, 21.7 nM and 19.1 nM.
In the case of “AUAGUUAGCAAAGGAUAUGGGAAAGGAAGUGUACCAGAAGGUUGGCUACUGGGCUUACAUGAGGAUCACCCAUGUCCCGGUAGC [PowerStrip SSNG 1.30] (Eterna round: R96, puzzle: Same State NG 1)”, the “apparent KD of MS2 coat protein” value came out at 14.6 nM (input ligand: FMN 200 uM), 14.2 nM under setting [4] and 15.4 nM (input ligand: none).
The matching figures for “GAGCCAGUCCGAGGAUAUUCAACAUGAGGAUCACCCAUGUAGGCUCAGAAAAGAAAAGAGCCUUGGGAGAAGGCGGACUGGCUC [Xeonanisa<<7] (Eterna round: R96, puzzle: Same State NG 2)”: 9.61 nM, 9.01 nM and 14.1 nM.
On to “CACCCAAAGGAAGGAUAUAGGGACUCGAGGACAACAUGAGGAUCACCCAUGUCCCGCCAUCGGCCUUAGAAGGUCCAAGGGAAC [Eternabot solution 7] (Eterna round: R96, puzzle: Same State NG 2)”, for which the “apparent KD of MS2 coat protein” value (input ligand: FMN 200 uM) turned out to be 18.8 nM, the “apparent KD of MS2 coat protein” value under setting [4] is 17.1 nM and the “apparent KD of MS2 coat protein” value (input ligand: none) amounted to 21.8 nM.
For the sequence “GGUAUCGGCACAGGAUAUGCUAUCCUUUGGGUAGCAGAAGGGUGGACAUGAGGAUCACCCAUGUAGGUGCCAGGGCGUGAGCCC [JL SSNG1 1.87] (Eterna round: R96, puzzle: Same State NG 1)”, the “apparent KD of MS2 coat protein” value worked out at 2490 nM (input ligand: FMN 200 uM), 26.3 nM under setting [4] and 3550 nM (input ligand: none).
Regarding “GCCCAUAGUAUAUGGGUACAAGCUUUUUAACAUGAGGAUCACCCAUGUACUCGUCUUAUGUGCAGUCCGUAGACUGC [JL-shm-2.17 Brourd mod] (puzzle: Sensor for hsa-mir-208a)”, the “apparent KD of MS2 coat protein” value runs as follows: under setting [1], 86.4 nM; under setting [2], 14 nM; under setting [3], 82.3 nM.
In the case of “AUGAAGAAUUAAGGAUAUUGAUUACAUAUGUUUAACAUGAGGAUCACCCAUGUGGGUUGCGGUAUCGAGAAGGUAAAUUACAAG [Mat - same State NG 2 - JL mod - D87] (Eterna round: R96, puzzle: Same State NG 2)”, the “apparent KD of MS2 coat protein” value by setting is: (input ligand: FMN 200 uM) 177 nM; under setting [4], 132 nM; (input ligand: none) 187 nM.
The matching figures for “GGAGCCAAGGCAGGAUAUUCAUUAUAAAUAACAUGAGGAUCACCCAUGUUGGCCAGAAGGCCAUGGGAGAAGGGCCAUGGCUCG [Xeonanis - 13 mod24] (Eterna round: R96, puzzle: Same State NG 2)”: 17.7 nM, 73.7 nM and 105 nM.
Taken in the same sequence, the figures for “AAAUUACUCCGAGGAUAUGCAUGGCUUUGUGCCGCAGAAGGUGGAUCGACGGACAUGAGGAUCACCCAUGUACACUGUCCUAUA [Gerite] (Eterna round: R96, puzzle: Same State NG 1)” were 26.4 nM, 34.7 nM and 46.9 nM.
As to “UUGCUCGUGUGAGGAUAUGCCGCCGUUUCGGCUGCAGAAGGUGCUACGUUACAUGAGGAUCACCCAUGUCUCUGUUGUUUCGUG [salish99_SSNG1_r04_941] (Eterna round: R96, puzzle: Same State NG 1)”, the “apparent KD of MS2 coat protein” value (input ligand: FMN 200 uM) was 17.5 nM, the “apparent KD of MS2 coat protein” value under setting [4] was found to be 19.7 nM and the “apparent KD of MS2 coat protein” value (input ligand: none) turned out to be 21.1 nM.
The matching figures for “CGCGGUAAGGAAGGAUAUGGGACGAAAACGUACCUAGAAGGUCCACAUGAGGAUCACCCAUGUACCAAGAAAGCCGCUCAAUUA [Uszabeon] (Eterna round: R96, puzzle: Same State NG 1)”: 89.8 nM, 260 nM and 334 nM.
For “AGUCCAGCCUGAGCUGGACAAAAGCAUGUACAUGAGGAUCACCCAUGUUCAUGUACAGGCUUUUUGCUCGUCUUAAA [Zipper 52 - 7] (puzzle: Sensor for hsa-mir-208a)”, the “apparent KD of MS2 coat protein” value is, setting by setting: under setting [1], 331 nM; under setting [2], 17.8 nM; under setting [3], 488 nM.
Regarding “GCUCGUAUGAUGACCGACAUGAGGAUCACCCAUGUGUGUCGGUAGGAUAUCUAUAUUAAGGAUAUAGAGAAGGGCCGAACGAGC [SameState NG3 #17] (Eterna round: R96, puzzle: Same State NG 3)”, the “apparent KD of MS2 coat protein” value (input ligand: FMN 200 uM) was 31.4 nM, the “apparent KD of MS2 coat protein” value under setting [4] came to 62.9 nM and the “apparent KD of MS2 coat protein” value (input ligand: none) amounted to 92.9 nM.
Taken in the same sequence, the figures for “UGGUACAUGAGAGGAUAUGGGUAGAUGACAUGAGGAUCACCCAUGUUAAAGUCCGAAAGGACAUCCUAGAAGGCUCAUGUACCU [MOD of JL SSNG1 3.99] (Eterna round: R96, puzzle: Same State NG 2)” were 11 nM, 27 nM and 27.7 nM.
“AGUCCAGCCUGAGCUGGACAAAUGCUUGUACAUGAGGAUCACCCAUGUAUGUACAAGCUUUUUGCUCGUCUUAAUAA [JL zipper 68] (Eterna round: R96, puzzle: Sensor for hsa-mir-208a)”: the “apparent KD of MS2 coat protein” value was 263 nM (input ligand: FMN 200 uM), 18.2 nM under setting [4] and 223 nM (input ligand: none).
“AGACACAUGAGGAUCACCCAUGUUACGAGCUUAGCUCGGACACAGGAUAUCCGGUCCUAGAGACCGGAGAAGGGUGCCUGAUAA [Zara MOD3] (Eterna round: R96, puzzle: Same State NG 3)”: the “apparent KD of MS2 coat protein” value runs as follows: (input ligand: FMN 200 uM) 568 nM; under setting [4], 678 nM; (input ligand: none) 765 nM.
In the case of “GUGCUCGUGUAAGGAUAUGCAGCCGUUUCGGCUGCAGAAGGUACUAUAAUACAUGAGGAUCACCCAUGUCUCUUUUGUUUGGUG [salish99_SSNG1_r04_907] (Eterna round: R96, puzzle: Same State NG 1)”, the “apparent KD of MS2 coat protein” value by setting is: (input ligand: FMN 200 uM) 234 nM; under setting [4], 111 nM; (input ligand: none) 222 nM.

For the origin of these results see the supplement of paper PMC9170038.
